Source: publication PMC6736547

Molecular target: Pcdh γB6 ectodomain, γB6_(EC1–6), wild type
Assay: cryo-EM structure

For “Pcdh γB6 ectodomain, γB6_(EC1–6), wild type (domain or fragment)”, the stoichiometry N was 4.
